From publication PMC7994712 (Nature Communications, 2021)
“Also recorded” adds a separate entry of the source. Like-named read-outs stand apart in the source and are kept apart here. Bridges are numbered along the chain shown (N, C = ends). Where no end group is shown, it is not given here.

Tests used:
SSTR1 = biological target: T1, SSTR1 (Homo sapiens, UniProt P30872); test: Radio-ligand binding assay, SSTR1
T1 construct: host or cells: CHO-K1
Procedure: (§1) Graphical and tabular representation of the percentage inhibition of specific binding, as IC50 (nM) binding values for the analogues against the five SSTR1-SSTR5 is represented in Supplementary Fig. 1b and Supplementary Table 1. […] IC50 values were determined by a non-linear, least squares regression analysis using Prism 9 (GraphPad Software, USA), using the Dose-response inhibition (three-parameters) model. […]
(§2) (SSTR1-SSTR5), using a Radio-ligand Binding Assay (Supplementary Figure 1b). Cells were incubated in HEPES buffer pH 7.4 with the new analogues of Cortistatin at 10 different concentrations in a range […]
(§3) specifically bound (performed at Eurofins Panlabs, Inc.). The radioactivity obtained in the absence of SST14 is considered as total binding and that obtained in the presence of 1 µM of SST14 is considered as nonspecific binding. Specific binding was considered as the difference between total and nonspecific.
(§4) Biochemical assay results are presented as the percent inhibition of specific bindin g (% inhib ition) as a […]
(§5) part of each binding assay with the five (SSTR1 -SS T R5 ) . I C50 values were determined by a non-linear, least squares regression analysis using Prism 9 (GraphPad Software, USA), using the Dose -response inhibit ion (t hree-parameters) model.

SSTR2 = biological target: T2, SSTR2 (Homo sapiens, UniProt P30874); test: Radio-ligand binding assay, SSTR2
T2 construct: host or cells: CHO-K1
T2 sequence (P30874 whole entry): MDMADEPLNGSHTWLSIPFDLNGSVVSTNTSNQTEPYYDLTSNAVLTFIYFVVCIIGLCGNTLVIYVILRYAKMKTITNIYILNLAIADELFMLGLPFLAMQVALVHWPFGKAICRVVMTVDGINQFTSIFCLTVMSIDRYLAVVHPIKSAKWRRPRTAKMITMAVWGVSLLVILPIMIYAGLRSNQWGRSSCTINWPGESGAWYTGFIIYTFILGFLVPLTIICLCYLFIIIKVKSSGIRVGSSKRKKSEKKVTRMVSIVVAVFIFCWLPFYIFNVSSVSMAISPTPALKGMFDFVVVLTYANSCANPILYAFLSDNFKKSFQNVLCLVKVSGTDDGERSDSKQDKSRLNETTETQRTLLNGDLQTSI
Procedure: as §1, §2, §3, §4, §5

SSTR3 = biological target: T3, SSTR3 (Homo sapiens, UniProt P32745); test: Radio-ligand binding assay, SSTR3
T3 construct: host or cells: CHO-K1
T3 sequence (P32745 whole entry): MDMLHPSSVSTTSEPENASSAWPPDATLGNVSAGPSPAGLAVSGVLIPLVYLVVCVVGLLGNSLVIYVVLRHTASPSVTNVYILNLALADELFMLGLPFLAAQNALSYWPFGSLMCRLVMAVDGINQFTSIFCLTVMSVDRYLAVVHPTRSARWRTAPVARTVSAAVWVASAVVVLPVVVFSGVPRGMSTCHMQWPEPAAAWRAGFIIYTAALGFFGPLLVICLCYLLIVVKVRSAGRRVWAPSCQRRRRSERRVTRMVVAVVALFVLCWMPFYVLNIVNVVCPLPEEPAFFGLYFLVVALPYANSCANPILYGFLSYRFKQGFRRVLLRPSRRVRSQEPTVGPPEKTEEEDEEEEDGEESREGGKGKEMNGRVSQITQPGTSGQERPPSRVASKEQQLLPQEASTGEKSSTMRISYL
Procedure: as §1, §2, §3, §4, §5

[1] = Aqueous solubility (observed on sample preparation); assay type: physicochemical; conditions: aqueous buffer solution; observation in words
Text: For instance, it is well known that substitution of L-Trp to D-Trp increases the population of the native β-turn and of and the analogue half-life in serum. […] For these reasons, in all the CST analogues, L-Trp was replaced by D-Trp in position 7 and Ser11 was replaced by Thr11 to stabilise the β-turn; and either Phe6 or Phe5 were replaced by Msa (analogues 2 and 4; Fig. 1c). In addition to these modifications, terminal residues were acylated as N-octanoyl amides (analogues 3 and 5). The reasoning behind this modification was to increase the hydrophobicity of the analogue and mimic a similar modification to that observed in ghrelin, a neuropeptide produced by endocrine cells in the digestive tract and that shares with CST the ability to interact with the growth hormone secretagogue receptor GHSR-1a[28].
We also characterised the conformational properties of analogues 2, 3 and 4. […] In these cases (Fig. 8a–c), the aromatic residues 5 and 10 align on one side of the molecule, whereas the side chain of residue 6 is located on the other side of the peptide plane. In this conformation, D-Trp7 is close to the pair of aromatic rings 5 and 10, due to the presence of weak NOEs involving the ring protons of D-Trp7 and the methyl protons of Msa5. […]

[2] = biological target: Somatostatin receptor 1 (SSTR1) (human), P30872; conditions: chains peptide; internal disulfide bond between the two cysteines (cyclic peptide)
Chain of Somatostatin receptor 1 (SSTR1) (human), P30872 (P30872 whole entry): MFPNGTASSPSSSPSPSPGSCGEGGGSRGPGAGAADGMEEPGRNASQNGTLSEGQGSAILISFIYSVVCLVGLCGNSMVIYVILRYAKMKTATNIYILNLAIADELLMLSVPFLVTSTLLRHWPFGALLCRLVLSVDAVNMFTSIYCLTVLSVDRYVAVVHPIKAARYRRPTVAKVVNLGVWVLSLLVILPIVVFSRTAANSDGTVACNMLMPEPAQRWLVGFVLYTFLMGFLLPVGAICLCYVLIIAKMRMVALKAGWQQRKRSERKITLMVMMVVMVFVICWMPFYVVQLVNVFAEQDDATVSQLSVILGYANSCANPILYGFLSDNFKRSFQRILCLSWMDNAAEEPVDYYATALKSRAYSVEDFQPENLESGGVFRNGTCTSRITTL

[3] = biological target: Somatostatin receptor 5 (SSTR5) (human), P35346; conditions: chains peptide; internal disulfide bond between the two cysteines (cyclic peptide)
Chain of Somatostatin receptor 5 (SSTR5) (human), P35346 (P35346 whole entry): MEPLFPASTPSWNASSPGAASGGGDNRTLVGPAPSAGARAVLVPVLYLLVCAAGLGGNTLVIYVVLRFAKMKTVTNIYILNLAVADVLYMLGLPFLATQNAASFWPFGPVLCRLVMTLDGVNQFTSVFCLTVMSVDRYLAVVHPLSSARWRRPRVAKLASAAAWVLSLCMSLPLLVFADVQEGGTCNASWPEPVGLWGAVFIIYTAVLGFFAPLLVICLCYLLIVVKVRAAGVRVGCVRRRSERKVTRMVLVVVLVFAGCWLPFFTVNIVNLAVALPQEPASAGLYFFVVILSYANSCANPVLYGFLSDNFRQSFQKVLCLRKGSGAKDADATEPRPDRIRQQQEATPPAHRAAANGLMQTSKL

[4] = biological target: Somatostatin receptor 4 (SSTR4) (human), P31391; conditions: chains peptide; internal disulfide bond between the two cysteines (cyclic peptide)
Chain of Somatostatin receptor 4 (SSTR4) (human), P31391 (P31391 whole entry): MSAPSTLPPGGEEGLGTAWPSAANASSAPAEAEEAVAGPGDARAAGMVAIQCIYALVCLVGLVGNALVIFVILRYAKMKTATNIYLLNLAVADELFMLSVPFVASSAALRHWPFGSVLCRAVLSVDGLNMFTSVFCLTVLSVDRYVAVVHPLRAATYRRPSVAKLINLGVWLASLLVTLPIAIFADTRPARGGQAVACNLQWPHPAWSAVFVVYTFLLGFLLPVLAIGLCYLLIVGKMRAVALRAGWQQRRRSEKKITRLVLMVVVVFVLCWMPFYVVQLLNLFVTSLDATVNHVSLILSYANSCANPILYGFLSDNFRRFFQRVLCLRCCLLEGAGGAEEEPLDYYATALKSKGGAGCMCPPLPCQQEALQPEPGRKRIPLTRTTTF

[5] = biological target: Somatostatin receptor 2 (SSTR2) (human), P30874; conditions: chains peptide; internal disulfide bond between the two cysteines (cyclic peptide)
Chain of Somatostatin receptor 2 (SSTR2) (human), P30874 (P30874 whole entry): as the sequence (P30874 whole entry) above

[6] = biological target: Somatostatin receptor 3 (SSTR3) (human), P32745; test: competition with 125I-Tyr11 SST14
Chain of Somatostatin receptor 3 (SSTR3) (human), P32745 (P32745 whole entry): as the sequence (P32745 whole entry) above

[7] = biological target: Somatostatin receptor 3 (SSTR3) (human), P32745; conditions: octanoyl moiety at the N-terminus (N-octanoyl amide); L-mesityl alanine (Msa) at position 5; D-Trp at position 7; disulfide bridge between the two cysteines
[8] = biological target: Somatostatin receptor 1 (SSTR1) (human), P30872; conditions: octanoyl moiety at the N-terminus (N-octanoyl amide); L-mesityl alanine (Msa) at position 5; D-Trp at position 7; disulfide bridge between the two cysteines
[9] = biological target: Somatostatin receptor 5 (SSTR5) (human), P35346; conditions: octanoyl moiety at the N-terminus (N-octanoyl amide); L-mesityl alanine (Msa) at position 5; D-Trp at position 7; disulfide bridge between the two cysteines
[10] = biological target: Somatostatin receptor 2 (SSTR2) (human), P30874; conditions: octanoyl moiety at the N-terminus (N-octanoyl amide); L-mesityl alanine (Msa) at position 5; D-Trp at position 7; disulfide bridge between the two cysteines
[11] = biological target: Somatostatin receptor 1 (SSTR1) (human), P30872; test: competition with 125I-Tyr11 SST14; conditions: D-Trp at position 7, disulfide bridge between the two cysteines
[12] = biological target: Somatostatin receptor 2 (SSTR2) (human), P30874; test: competition with 125I-Tyr11 SST14; conditions: D-Trp at position 7, disulfide bridge between the two cysteines
[13] = biological target: Somatostatin receptor 5 (SSTR5) (human), P35346; test: competition with 125I-Tyr11 SST14; conditions: D-Trp at position 7, disulfide bridge between the two cysteines
[14] = biological target: Somatostatin receptor 3 (SSTR3) (human), P32745; conditions: L-mesityl alanine (Msa) in place of Phe5; D-Trp at position 7; disulfide bridge between the two cysteines
[15] = biological target: Somatostatin receptor 1 (SSTR1) (human), P30872; conditions: L-mesityl alanine (Msa) in place of Phe5; D-Trp at position 7; disulfide bridge between the two cysteines
[16] = biological target: Somatostatin receptor 5 (SSTR5) (human), P35346; conditions: L-mesityl alanine (Msa) in place of Phe5; D-Trp at position 7; disulfide bridge between the two cysteines
[17] = biological target: Somatostatin receptor 2 (SSTR2) (human), P30874; conditions: L-mesityl alanine (Msa) in place of Phe5; D-Trp at position 7; disulfide bridge between the two cysteines
[18] = biological target: Somatostatin receptor 3 (SSTR3) (human), P32745; conditions: L-mesityl alanine (2,4,6-trimethylphenylalanine, Msa) in place of Phe6; D-Trp at position 7; disulfide bridge between the two cysteines
[19] = biological target: Somatostatin receptor 1 (SSTR1) (human), P30872; conditions: L-mesityl alanine (2,4,6-trimethylphenylalanine, Msa) in place of Phe6; D-Trp at position 7; disulfide bridge between the two cysteines
[20] = biological target: Somatostatin receptor 5 (SSTR5) (human), P35346; conditions: L-mesityl alanine (2,4,6-trimethylphenylalanine, Msa) in place of Phe6; D-Trp at position 7; disulfide bridge between the two cysteines
[21] = biological target: Somatostatin receptor 2 (SSTR2) (human), P30874; conditions: L-mesityl alanine (2,4,6-trimethylphenylalanine, Msa) in place of Phe6; D-Trp at position 7; disulfide bridge between the two cysteines
[22] = biological target: Somatostatin receptor 3 (SSTR3) (human), P32745; conditions: N-octanoyl amide on the N-terminal residue; L-mesityl alanine (Msa) at position 6; D-Trp at position 7; disulfide bridge between the two cysteines
[23] = biological target: Somatostatin receptor 1 (SSTR1) (human), P30872; conditions: N-octanoyl amide on the N-terminal residue; L-mesityl alanine (Msa) at position 6; D-Trp at position 7; disulfide bridge between the two cysteines
[24] = biological target: Somatostatin receptor 5 (SSTR5) (human), P35346; conditions: N-octanoyl amide on the N-terminal residue; L-mesityl alanine (Msa) at position 6; D-Trp at position 7; disulfide bridge between the two cysteines
[25] = biological target: Somatostatin receptor 2 (SSTR2) (human), P30874; conditions: N-octanoyl amide on the N-terminal residue; L-mesityl alanine (Msa) at position 6; D-Trp at position 7; disulfide bridge between the two cysteines
[26] = octanoyl moiety at the N-terminus (N-octanoyl amide), L-mesityl alanine (Msa) at position 5
[27] = L-mesityl alanine (Msa) in place of Phe5
[28] = L-mesityl alanine (2,4,6-trimethylphenylalanine, Msa) in place of Phe6
[29] = N-octanoyl amide on the N-terminal residue, L-mesityl alanine (Msa) at position 6

T1 sequence (P30872 whole entry): as the sequence (P30872 whole entry) above

PCKNFFWKTFSSCK
cleaved bond: Cys13-L-Lys14, major

Cc1cc(C)c(C[C@@H]2NC(=O)[C@H](Cc3ccccc3)NC(=O)[C@H](CC(N)=O)NC(=O)[C@H](CCCCN)NC(=O)[C@@H](NC(=O)[C@@H]3CCCN3)CSSC[C@@H](C(=O)N[C@@H](CCCCN)C(=O)O)NC(=O)[C@H](CO)NC(=O)[C@H]([C@@H](C)O)NC(=O)[C@H](Cc3ccccc3)NC(=O)[C@H]([C@@H](C)O)NC(=O)[C@H](CCCCN)NC(=O)[C@@H](Cc3c[nH]c4ccccc34)NC2=O)c(C)c1 [A2]
IC50 (SSTR1): 14.1 nM
IC50 (SSTR2): 0.42 nM
IC50 (SSTR3): 16 nM

CCCCCCCC(=O)N1CCC[C@H]1C(=O)N[C@H]1CSSC[C@@H](C(=O)N[C@@H](CCCCN)C(=O)O)NC(=O)[C@H](CO)NC(=O)[C@H]([C@@H](C)O)NC(=O)[C@H](Cc2ccccc2)NC(=O)[C@H]([C@@H](C)O)NC(=O)[C@H](CCCCN)NC(=O)[C@@H](Cc2c[nH]c3ccccc23)NC(=O)[C@H](Cc2c(C)cc(C)cc2C)NC(=O)[C@H](Cc2ccccc2)NC(=O)[C@H](CC(N)=O)NC(=O)[C@H](CCCCN)NC1=O [A3]
IC50 (SSTR2): 2.8 nM

CCCCCCCC(=O)N1CCC[C@H]1C(=O)N[C@H]1CSSC[C@@H](C(=O)O)NC(=O)[C@H](CO)NC(=O)[C@H]([C@@H](C)O)NC(=O)[C@H](Cc2ccccc2)NC(=O)[C@H]([C@@H](C)O)NC(=O)[C@H](CCCCN)NC(=O)[C@@H](Cc2c[nH]c3ccccc23)NC(=O)[C@H](Cc2ccccc2)NC(=O)[C@H](Cc2c(C)cc(C)cc2C)NC(=O)[C@H](CC(N)=O)NC(=O)[C@H](CCCCN)NC1=O [analogue 6]
aqueous solubility [1]: reduced its aqueous solubility; also recorded: significant impact on the solubility of the sample

PCKNFFWKTFSSCK (disulfide 2-13 (inferred)) [Cortistatin-14 (r,mCST-14), Q62949 99-112]
IC50 [2]: 1.7 nM
IC50 [3]: 0.3 nM
IC50 [4]: 0.2 nM
IC50 [5]: 0.09 nM
IC50 ([6]; chains peptide, internal disulfide bond between the two cysteines (cyclic peptide)): 0.3 nM

PCKNFFWKTFTSCK [Cortistatin analogue 5]
IC50 [7]: 5.1 nM
IC50 [8]: 47.3 nM
IC50 [9]: 1.12 nM
IC50 [10]: 35 nM
IC50 [11, 26]: 47.3 nM
IC50 [12, 26]: 35 nM
IC50 ([6]; octanoyl moiety at the N-terminus (N-octanoyl amide), L-mesityl alanine (Msa) at position 5, D-Trp at position 7, disulfide bridge between the two cysteines): 5.1 nM
IC50 [13, 26]: 1.12 nM

PCKNFFWKTFTSCK [Cortistatin analogue 4]
IC50 [14]: 1.8 nM
IC50 [15]: 14.7 nM
IC50 [16]: 4 nM
IC50 [17]: 9.8 nM
IC50 [11, 27]: 14.7 nM
IC50 [12, 27]: 9.8 nM
IC50 ([6]; L-mesityl alanine (Msa) in place of Phe5, D-Trp at position 7, disulfide bridge between the two cysteines): 1.8 nM
IC50 [13, 27]: 4 nM

PCKNFFWKTFTSCK [Cortistatin analogue 2]
IC50 [18]: 16 nM
IC50 [19]: 14.1 nM
IC50 [20]: 33 nM
IC50 [21]: 0.42 nM
IC50 [11, 28]: 14.1 nM
IC50 [12, 28]: 0.42 nM
IC50 ([6]; L-mesityl alanine (2,4,6-trimethylphenylalanine, Msa) in place of Phe6, D-Trp at position 7, disulfide bridge between the two cysteines): 16 nM
IC50 [13, 28]: 33 nM

PCKNFFWKTFTSCK [Cortistatin analogue 3]
IC50 [22]: 100 nM
IC50 [23]: > 300 nM
IC50 [24]: > 300 nM
IC50 [25]: 2.8 nM
IC50 [11, 29]: > 300 nM
IC50 [12, 29]: 2.8 nM
IC50 ([6]; N-octanoyl amide on the N-terminal residue, L-mesityl alanine (Msa) at position 6, D-Trp at position 7, disulfide bridge between the two cysteines): 100 nM
IC50 [13, 29]: > 300 nM
